In US12281155 (INSTITUT PASTEUR, dated 2025):
Positions count from the first letter of the chain named.

B1: SPK002M C2 antibody (antibody, human IgG1, kappa, V domains shown)
VH: EVQLVESGGGLIQPGGSLRLSCAASIITVTSNYMSWVRQAPGKGLEWVSVAYPGGSTFYADSVKGRFTISTDNSKNTLYLQMNSLRAEDTAVYYCARDLVVYGMDVWGQGTTVTVSS
VL: EIVLTQSPGTLSLSPGERATLSCRASQSVSSSYLAWYQQKPGQAPRLLIYGASSRATGIPGRFSGSGSGTDFTLTISRLEPEDFAVYYCQQGVTFGGGTKVEIKR
B2: SPK002M C3 antibody (antibody, human IgG1, kappa, V domains shown)
VH: B1 VH with A51I
VL: B1 VL

Experiments:
[1] = biological target: T1, recombinant SARS-CoV-2 Spike RBD domain, Delta variant (SARS-CoV-2); test: ELISA on coated RBD
T1 construct: also called RBD Delta variant

[2] = biological target: T2, recombinant SARS-CoV-2 Spike RBD domain, BA.2 variant (SARS-CoV-2); test: ELISA on coated RBD
T2 construct: also called RBD BA.2. variant

[3] = biological target: T3, recombinant SARS-CoV-2 Spike RBD domain, BA.2.75.2 variant (SARS-CoV-2); test: ELISA on coated RBD
T3 construct: also called RBD BA.2.75.2 variant

[4] = biological target: T4, recombinant SARS-CoV-2 Spike RBD domain, BA.4/5 variant (SARS-CoV-2); test: ELISA on coated RBD
T4 construct: also called RBD BA.4/5 variant

[5] = biological target: T5, recombinant SARS-CoV-2 Spike RBD domain, BQ.1.1 variant (SARS-CoV-2); test: ELISA on coated RBD
T5 construct: also called RBD BQ.1.1. variant

[6] = biological target: T6, recombinant SARS-CoV-2 Spike RBD domain, XBB.1.5 variant (SARS-CoV-2); test: ELISA on coated RBD
T6 construct: also called RBD XBB.1.5 variant

[7] = biological target: T7, recombinant SARS-CoV-2 Spike RBD domain, XBB.1.16 variant (SARS-CoV-2); test: ELISA on coated RBD
T7 construct: also called RBD XBB.1.16 variant

[8] = biological target: T8, recombinant SARS-CoV-2 Spike RBD domain, EG.5 variant (SARS-CoV-2); test: ELISA on coated RBD
T8 construct: also called RBD EG.5.1 variant

[9] = biological target: T9, recombinant SARS-CoV-2 Spike RBD domain, BA.2.86 variant (SARS-CoV-2); test: ELISA on coated RBD
T9 construct: also called RBD BA.2.86 variant

[10] = biological target: T10, recombinant SARS-CoV-2 Spike RBD domain, JN-1 variant (SARS-CoV-2); test: ELISA on coated RBD
T10 construct: also called RBD JN-1 variant

[11] = biological target: Spike protein of SARS-CoV-2 strain D614G (hCoV-19/France/GE1973/2020) (SARS-CoV-2, UniProt P0DTC2 14-1273); test: cell-based or functional assay
[12] = biological target: Spike protein of SARS-CoV-2 strain XBB.1.5 (GISAID EPI_ISL_16353849) (SARS-CoV-2); test: cell-based or functional assay
[13] = biological target: Spike protein of SARS-CoV-2 strain XBB.1.16 (hCoV-19/France/GES-IPP7712/2023) (SARS-CoV-2); test: cell-based or functional assay
[14] = biological target: Spike protein of SARS-CoV-2 strain BA.2.86 (hCoV-19/France/IDF-IPP17625/2023) (SARS-CoV-2); test: cell-based or functional assay
[15] = biological target: Spike protein of SARS-CoV-2 strain EG.5.1 (hCoV-19/France/GES-IPP15954/2023) (SARS-CoV-2); test: cell-based or functional assay
[16] = biological target: Spike protein of SARS-CoV-2 strain JN.1 (hCoV-19/France/HDF-IPP21391/2023) (SARS-CoV-2); test: cell-based or functional assay
[17] = biological target: T1, recombinant SARS-CoV-2 Spike RBD …; test: competition ELISA, blocking of RBD binding to ACE2 ectodomain
[18] = biological target: T2, recombinant SARS-CoV-2 Spike RBD …; test: as above
[19] = biological target: T3, recombinant SARS-CoV-2 Spike RBD …; test: as above
[20] = biological target: T4, recombinant SARS-CoV-2 Spike RBD …; test: as above
[21] = biological target: T5, recombinant SARS-CoV-2 Spike RBD …; test: as above
[22] = biological target: T6, recombinant SARS-CoV-2 Spike RBD …; test: as above
[23] = biological target: T7, recombinant SARS-CoV-2 Spike RBD …; test: as above
[24] = biological target: T8, recombinant SARS-CoV-2 Spike RBD …; test: as above
[25] = biological target: T9, recombinant SARS-CoV-2 Spike RBD …; test: as above
[26] = biological target: T10, recombinant SARS-CoV-2 Spike RBD …; test: as above

Binder	Binding AUC [1]	Binding AUC [2]	Binding AUC [3]	Binding AUC [4]	Binding AUC [5]	Binding AUC [6]	Binding AUC [7]	Binding AUC [8]	Binding AUC [9]	Binding AUC [10]	IC50, S-Fuse neutralization of live virus [11]	IC50, S-Fuse neutralization of live virus [12]	IC50, S-Fuse neutralization of live virus [13]	IC50, S-Fuse neutralization of live virus [14]	IC50, S-Fuse neutralization of live virus [15]	IC50, S-Fuse neutralization of live virus [16]	Blocking % [17]	Blocking % [18]	Blocking % [19]	Blocking % [20]	other results
B1	32	23	28	30	31	31	29	32	38	33	0.06 µg/mL	0.14 µg/mL	0.21 µg/mL	0.05 µg/mL	2.16 µg/mL	53.8 µg/mL	90%	93%	92%	93%	Blocking % [21]: 95%; Blocking % [22]: 93%; Blocking % [23]: 93%; Blocking % [24]: 89%; Blocking % [25]: 91%; Blocking % [26]: 28%
B2	33	19	29	32	31	32	31	33	38	29	0.08 µg/mL	0.13 µg/mL	0.3 µg/mL	0.33 µg/mL	6.08 µg/mL	60.1 µg/mL	95%	94%	94%	94%	Blocking % [21]: 94%; Blocking % [22]: 90%; Blocking % [23]: 90%; Blocking % [24]: 81%; Blocking % [25]: 90%; Blocking % [26]: 0%
